Assay results published in the supplement of paper PMC10724198.
± gives the standard deviation of the averaged measurements.

What follows are sequences tested on Saccharomyces cerevisiae (assay: protein stability index of tFT-peptide fusion (C-terminal peptide) (PSI (0-1 scale)); higher = more stable (slower turnover)). Details: genetic background: wild type; temperature: 30 C.
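Also: PSI is a weighted mean of sequencing reads over stability bins, variants kept only with over 10 reads, mCherry proximal and sfGFP distal, peptide attached via GGGS linker.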

Point of comparison: FFCYFFEFFICG, protein stability index 0.382 ± 0.017. Against it:
- DAIVLGSVVVCR — within error, 0.414 ± 0.026
- DCRFIIFYCVMV — higher, 0.457 ± 0.029
- DDESLVGRWRKV — within error, 0.365 ± 0.11
- DFPGDIILRLIA — lower, 0.207 ± 0.11
- DLAWAIGRLTKG — within error, 0.568 ± 0.2
- DLPKAYCIEMIG — lower, 0.328 ± 0.027
- DNLYSLEFMAIR — within error, 0.566 ± 0.19
- DPPRPIMRIHMI — lower, 0.181 ± 0.0027
- DSPRGRCVRLLV — within error, 0.398 ± 0.03
- DWCACFFILLLA — lower, 0.152 ± 0.019
- DWTVSYLWVTAL — lower, 0.331 ± 0.015
- ECCKRFCCRFVA — within error, 0.338 ± 0.044
- EERKIFLKVVKV — higher, 0.463 ± 0.0094
- EGGLGDRLLGVG — higher, 0.47 ± 0.015
- EMISRNVFTYLS — higher, 0.473 ± 0.03
- EMPRLSKAIRVT — higher, 0.44 ± 0.029
- EVGTMALISCSV — within error, 0.428 ± 0.034
- EWSRVVRWNWDG — lower, 0.254 ± 0.027
- FALVSLSFALVE — within error, 0.379 ± 0.034
- FAVHHLRYILLV — lower, 0.106 ± 0.016
- FCCSVFCFLCLY — higher, 0.504 ± 0.049
- FCGLLGVCLVMG — lower, 0.326 ± 0.032
- FCHFSSLVSVSL — within error, 0.577 ± 0.18
- FCLLRYPFVGVL — higher, 0.415 ± 0.013
- FCSNLLSMVIAV — higher, 0.432 ± 0.014
- FCVGVLFSCLVF — within error, 0.394 ± 0.019
- FCVGVVIQLSGV — higher, 0.415 ± 0.0067
- FCVLLFYCFFFF — within error, 0.356 ± 0.03
- FERKVHSRWLFF — lower, 0.23 ± 0.038
- FFATFVPSFLLC — within error, 0.407 ± 0.033
- FFFVFLGLRSVF — within error, 0.387 ± 0.049
- FFGFFWLFLLFC — lower, 0.267 ± 0.0029
- FFIVGACAYVFA — lower, 0.319 ± 0.033
- FFLLLVSVLSGW — lower, 0.316 ± 0.038
- FFPFHPHVLRLL — lower, 0.282 ± 0.053
- FFRAYLQMYVTD — within error, 0.362 ± 0.018
- FFVFLVLFCLWV — within error, 0.391 ± 0.076
- FFVFMAKLRTCN — lower, 0.0754 ± 0.063
- FFVFYICSCFLV — within error, 0.4 ± 0.047
- FFYVFPFFIFRF — within error, 0.406 ± 0.065
- FGLRVHPIVFIF — lower, 0.128 ± 0.034
- FGLVAYPLWYIS — lower, 0.18 ± 0.013
- FGSFVVWGVWWG — higher, 0.508 ± 0.018
- FGVLGCAWVWVG — lower, 0.157 ± 0.045
- FICLLFSCVYLG — within error, 0.41 ± 0.072
- FIGVLVFSWLLF — within error, 0.37 ± 0.03
- FKVTWGLFYGSV — within error, 0.44 ± 0.061
- FLCVLYFFLCVE — within error, 0.417 ± 0.18
- FLQIIIFSRVLF — higher, 0.467 ± 0.024
- FLRWRVWVVVGW — lower, 0.234 ± 0.0043
- FLSRLVGFYFVV — within error, 0.361 ± 0.021
- FLSVPHLLFLFI — higher, 0.511 ± 0.017
- FLTLQSPIQYIV — lower, 0.171 ± 0.015
- FLTSPSVWRYLF — lower, 0.153 ± 0.036
- FLYIPLYCRLSF — lower, 0.256 ± 0.027
- FPTLHPAIPYLC — higher, 0.458 ± 0.042
- FRFGAKISLIVL — within error, 0.368 ± 0.064
- FRHFPLLLSFVR — within error, 0.418 ± 0.062
- FRILVGCRVVLM — higher, 0.426 ± 0.021

Each sequence was assayed on Saccharomyces cerevisiae in the same assay as above. Details: genetic background: cdc34-1; temperature: 37 C.
Experimental: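 MPS profiling in S. cerevisiae of the tFT-X12 degron library: putative degron peptides plus stable controls, 12 aa, fused to the C-terminus of a sfGFP-mCherry timer. Cells are FACS-sorted into 8 mCherry/sfGFP bins and deep-sequenced. PSI runs from 0 (unstable) to 1 (stable). Backgrounds are wild type, das1Δ and doa10Δ at 30 °C, and wild type, das1Δ, cdc34-1 and cdc53-1 at 37 °C; 2-3 technical replicates each.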

Point of comparison: FCCSVFCFLCLY, protein stability index 0.562 ± 0.044. Against it:
- DAIVLGSVVVCR — within error, 0.515 ± 0.032
- DCRFIIFYCVMV — lower, 0.48 ± 0.022
- DDESLVGRWRKV — higher, 0.647 ± 0.011
- DFPGDIILRLIA — within error, 0.576 ± 0.041
- DLAWAIGRLTKG — higher, 0.72 ± 0.02
- DLPKAYCIEMIG — within error, 0.6033 ± 0.0055
- DNLYSLEFMAIR — higher, 0.719 ± 0.04
- DPPRPIMRIHMI — within error, 0.553 ± 0.065
- DSPRGRCVRLLV — higher, 0.66041 ± 1.4e-06
- DWCACFFILLLA — lower, 0.0391 ± 0.0052
- DWTVSYLWVTAL — within error, 0.534 ± 0.042
- ECCKRFCCRFVA — within error, 0.627 ± 0.038
- EERKIFLKVVKV — within error, 0.545 ± 0.036
- EGGLGDRLLGVG — within error, 0.526 ± 0.035
- EMISRNVFTYLS — higher, 0.684 ± 0.037
- EMPRLSKAIRVT — within error, 0.5407 ± 0.00036
- EVGTMALISCSV — lower, 0.3854 ± 0.001
- EWSRVVRWNWDG — within error, 0.528 ± 0.046
- FALVSLSFALVE — lower, 0.4203 ± 0.00048
- FAVHHLRYILLV — lower, 0.227 ± 0.029
- FCGLLGVCLVMG — lower, 0.208 ± 0.042
- FCHFSSLVSVSL — within error, 0.614 ± 0.011
- FCLLRYPFVGVL — within error, 0.625 ± 0.047
- FCSNLLSMVIAV — lower, 0.344 ± 0.0055
- FCVGVLFSCLVF — lower, 0.338 ± 0.041
- FCVGVVIQLSGV — lower, 0.435 ± 0.053
- FCVLLFYCFFFF — lower, 0.322 ± 0.011
- FERKVHSRWLFF — within error, 0.56888 ± 0.00051
- FFATFVPSFLLC — within error, 0.606 ± 0.023
- FFCYFFEFFICG — lower, 0.326 ± 0.054
- FFFVFLGLRSVF — lower, 0.348 ± 0.019
- FFGFFWLFLLFC — lower, 0.239 ± 0.022
- FFIVGACAYVFA — lower, 0.223 ± 0.036
- FFLLLVSVLSGW — lower, 0.177 ± 0.035
- FFPFHPHVLRLL — lower, 0.421 ± 0.044
- FFRAYLQMYVTD — lower, 0.412 ± 0.0053
- FFVFLVLFCLWV — lower, 0.278 ± 0.027
- FFVFMAKLRTCN — lower, 0.455 ± 0.042
- FFVFYICSCFLV — lower, 0.444 ± 0.037
- FFYVFPFFIFRF — lower, 0.338 ± 0.046
- FGLRVHPIVFIF — lower, 0.289 ± 0.032
- FGLVAYPLWYIS — within error, 0.504 ± 0.04
- FGSFVVWGVWWG — lower, 0.458 ± 0.0071
- FGVLGCAWVWVG — lower, 0.394 ± 0.0091
- FICLLFSCVYLG — within error, 0.51 ± 0.025
- FIGVLVFSWLLF — lower, 0.244 ± 0.029
- FKVTWGLFYGSV — within error, 0.551 ± 0.098
- FLCVLYFFLCVE — lower, 0.218 ± 0.00042
- FLQIIIFSRVLF — lower, 0.455 ± 0.013
- FLRWRVWVVVGW — lower, 0.187 ± 0.023
- FLSRLVGFYFVV — within error, 0.606 ± 0.018
- FLSVPHLLFLFI — within error, 0.608 ± 0.0063
- FLTLQSPIQYIV — within error, 0.584 ± 0.032
- FLTSPSVWRYLF — within error, 0.623 ± 0.026
- FLYIPLYCRLSF — lower, 0.286 ± 0.034
- FPTLHPAIPYLC — higher, 0.643 ± 0.013
- FRFGAKISLIVL — within error, 0.569 ± 0.019
- FRHFPLLLSFVR — lower, 0.428 ± 0.025
- FRILVGCRVVLM — lower, 0.429 ± 0.0069
